In US8691772B2, “HSP60, HSP60 peptides and T cell vaccines for immunomodulation” (Yeda Research and Development Co. Ltd., priority 2005, dated 2014):

Assays:
[1] = test system: NFATp; assay: NFATp activation in T cells; type: cell-based, human
Experimental: (§1) Western blot analysis of T-cell nuclear extracts. Purified T cells (5×10^6) were preincubated with different concentrations of HSP60 for the indicated periods of time (37° C. in a 7% CO2, humidified atmosphere). […] T cells were lysed in 10 mM HEPES, 1.5 mM MgCl2, 1 mM dithiothreitol (DTT), 1 mM PMSF, 0.5% Nonidet P-40. The lysates were incubated on ice for 10 min and centrifuged at 2000 rpm for 10 min at 4° C. The supernatants (cytoplasmic extracts) were transferred and the pellet (nuclei) was suspended in buffer containing 30 mM HEPES, 450 mM NaCl, 25% Glycerol, 0.5 mM EDTA, 6 mM DTT, 12 mM MgCl2 1 mM PMSF, 10 μg/ml leupeptin, 10 μg/ml pepstatin, 1% phosphatase inhibitor cocktail, and the suspension was incubated on ice for 30 min. The lysates were cleared by centrifugation (30 min, 14×10^3 rpm, 4° C.), and the resulting supernatants analyzed for protein content. For NFATp analysis nuclear extracts were prepared with a NE-PER Nuclear and Cytoplasmic Extraction reagent (Pierce, Rockford, Ill.) according to the manufacturer's protocol. Sample buffer was then added and, after boiling, the samples, containing equal amounts of proteins, were separated on 10% SDS-PAGE gel and transferred to nitrocellulose membranes. The membranes were blocked with TBST buffer containing low-fat milk (5%), Tris pH 7.5 (20 mM), NaCl (135 mM) and Tween 20 (0.1%), and probed with the following mAb in the same buffer: anti-NF-κb (diluted 1:1000), anti-total (t) ERK (diluted 1:20,000), anti-NFATp (diluted 1:500), anti T-bet (diluted 1:1000), anti-GATA-3 (diluted 1:1000), anti-Lamin B (diluted 1:1000). Immunoreactive protein bands were visualized using labeled secondary antibodies and the enhanced ECL system.

[2] = test system: SOCS3; assay: SOCS3 expression in human T cells (immunoblot); type: cell-based
[3] = test system: T-bet and GATA-3; assay: T-bet and GATA-3 expression in human T cells; type: cell-based
Experimental: as §1

[4] = test system: AKT, Pyk-2, p38, ERK, NF-κB, T-bet; assay: Western blot analysis of CD4+CD25+ / CD4+CD25- T-cell lysates; type: cell-based, human
Source text: CFSE labeling of CD4^+CD25^− T cells. CD4^+CD25^− T cells were labeled with Vybrant™ CFDA SE Cell Tracer Kit (Molecular Probes; Eugene, Oreg.) according to the manufacturer's instructions. Labeled CD4^+CD25^− T cells were co-cultured with CD4^+CD25^+ T cells on anti-CD3 mAb, as described above, for 6 hr. After co-culture, CD4^+CD25^− T cells were isolated by sorting using a Becton Dickinson FACSVantage (Mountain View, Calif.).
Western blot analysis of T-cell lysates. Indicated populations of T cells (5×10^6) were preincubated with 1 ng/ml of HSP60 for 10 min (37° C. in a 7% CO2, humidified atmosphere). […] Total cell lysates, nuclear and cytoplasmic extracts were prepared as previously described (Zanin-Zhorov et al., 2003, section D of the Examples herein), analyzed for protein content. Sample buffer was then added and, after boiling, the samples, containing equal amounts of proteins, were separated on 10% SDS-PAGE gel and transferred to nitrocellulose membranes. The membranes were blocked and probed with the following mAb in the same buffer: anti-phosphorylated (p) ERK. […]

[5] = 1 ng/ml and 1 μg/ml, no anti-CD3

B1: HSP60: recombinant human heat shock protein 60 (StressGen Biotechnologies) (protein)
chain: AKDVKFGADARALMLQGVDLLADAVAVTMGPKGRTVIIEQSWGSPKVTKDGVTVAKSIDLKDKYKNIGAKLVQDVANNTNEEAGDGTTTATVLARSIAKEGFEKISKGANPVEIRRGVMLAVDAVIAELKKQSKPVTTPEEIAQVATISANGDKEIGNIISDAMKKVGRKGVITVKDGKTLNDELEIIEGMKFDRGYISPYFINTSKGQKCEFQDAYVLLSEKKISSIQSIVPALEIANAHRKPLVIIAEDVDGEALSTLVLNRLKVGLQVVAVKAPGFGDNRKNQLKDMAIATGGAVFGEEGLTLNLEDVQPHDLGKVGEVIVTKDDAMLLKGKGDKAQIEKRIQEIIEQLDVTTSEYEKEKLNERLAKLSDGVAVLKVGGTSDVEVNEKKDRVTDALNATRAAVEEGIVLGGGCALLRCIPALDSLTPANEDQKIGIEIIKRTLKIPAMTIAKNAGVEGSLIVEKIMQSSSEVGYDAMAGDFVNMVEKGIIDPTKVVRTALLDAAGVASLLTTAEVVVTEIPKEEKDPGMGAMGGMGGGMGGGMF
For B1, the “time at which NFATp inhibition was apparent” value ([1]; 1 ng/ml) was 60 min, the “time of peak NFATp inhibition” value ([1]; 1 ng/ml) was 120 to 240 min and the “anti-CD3-induced activation and de-phosphorylation of NFATp” value ([1]; 1 ng/ml pre-treatment) was “significant down-regulation of their activation and de-phosphorylation of NFATp”. The “NFATp phosphorylation in the absence of anti-CD3” value ([1]; HSP60 alone) was “did not affect NFATp phosphorylation”, the “time at which SOCS3 activation was apparent” value ([2]; 1 ng/ml) was 30 min and the “time of peak SOCS3 activation” value ([2]; 1 ng/ml) was 1 to 2 h. For the same molecule, the “HSP60 concentrations of maximal SOCS3 activation” value ([2]; biphasic dose-response curve) was 1 ng/mL and 1000 ng/mL, the “expression of SOCS3” value ([2]; human T cells, 1 hr, 0-1000 ng/ml) was “activated the expression of SOCS3 (P<0.05)” and the “T-bet expression induced by anti-CD3” value ([3]; 1 ng/ml and 1 μg/ml, 1 hr pre-treatment) was “significantly (P<0.05) inhibited the T-bet expression induced by the anti-CD3”. The “protein level of GATA-3” value [3, 5] was “significantly (P<0.01) up-regulated the protein level of GATA-3”, the “protein level of T-bet” value [3, 5] was “but not of T-bet” and the “GATA-3 expression with anti-CD3” value ([3]; 1 hr pre-incubation) was “significantly up-regulated the expression level of GATA-3”. The “phosphorylation of AKT, Pyk-2, and p38” value ([4]; CD4+CD25+ T cells, 1 ng/ml, 10 min) was “induced phosphorylation of AKT, Pyk-2, and p38” and the “ERK phosphorylation, NF-κB nuclear translocation and T-bet expression in CD4+CD25- T cells” value ([4]; co-culture with HSP60-treated CD4+CD25+ (1:9), anti-CD3, 6 hr) was “down-regulation of ERK phosphorylation, inhibition of nuclear translocation of NF-κB and T-bet expression”.
